Measurements published in patent publication US20190309079A1 (Regeneron, published 2019).

Columns and labels:
[1] = molecular target: T1, full length human LEPR (amino acids 1-1165 of P48357, Isoform B) on cells (human, UniProt P48357 22-1165); experiment: cell-based or functional assay
T1 sequence: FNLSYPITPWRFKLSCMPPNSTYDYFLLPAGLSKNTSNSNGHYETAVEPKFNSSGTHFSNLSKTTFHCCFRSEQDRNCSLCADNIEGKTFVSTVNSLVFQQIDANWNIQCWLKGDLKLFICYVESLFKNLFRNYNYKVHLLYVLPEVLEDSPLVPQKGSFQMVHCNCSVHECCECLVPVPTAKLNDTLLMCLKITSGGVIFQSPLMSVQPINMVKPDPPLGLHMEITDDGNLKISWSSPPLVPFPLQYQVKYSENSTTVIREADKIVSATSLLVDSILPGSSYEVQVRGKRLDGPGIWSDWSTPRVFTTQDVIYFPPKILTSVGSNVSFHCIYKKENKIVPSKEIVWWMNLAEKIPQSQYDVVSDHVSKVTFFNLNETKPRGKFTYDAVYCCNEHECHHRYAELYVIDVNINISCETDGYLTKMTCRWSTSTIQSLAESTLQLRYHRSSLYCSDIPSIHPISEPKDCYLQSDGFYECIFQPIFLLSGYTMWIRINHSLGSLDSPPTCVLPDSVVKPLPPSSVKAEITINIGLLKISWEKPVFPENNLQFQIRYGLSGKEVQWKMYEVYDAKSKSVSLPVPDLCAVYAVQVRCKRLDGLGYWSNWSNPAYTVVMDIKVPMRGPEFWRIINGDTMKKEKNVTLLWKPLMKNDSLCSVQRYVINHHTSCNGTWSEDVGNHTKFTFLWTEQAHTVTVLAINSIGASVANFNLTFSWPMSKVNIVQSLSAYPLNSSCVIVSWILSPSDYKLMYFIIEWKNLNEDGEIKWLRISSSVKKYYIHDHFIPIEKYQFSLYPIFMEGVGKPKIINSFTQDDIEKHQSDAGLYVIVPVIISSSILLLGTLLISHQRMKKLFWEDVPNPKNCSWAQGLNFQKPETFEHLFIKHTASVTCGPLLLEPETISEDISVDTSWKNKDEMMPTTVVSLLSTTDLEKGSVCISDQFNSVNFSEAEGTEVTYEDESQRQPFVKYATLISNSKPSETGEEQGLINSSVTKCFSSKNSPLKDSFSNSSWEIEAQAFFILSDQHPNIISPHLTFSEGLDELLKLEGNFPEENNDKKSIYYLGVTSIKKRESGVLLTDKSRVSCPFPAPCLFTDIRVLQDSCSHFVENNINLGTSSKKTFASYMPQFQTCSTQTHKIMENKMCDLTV

[2] = molecular target: mouse LEPR extracellular domain expressed with a C-terminal myc-myc-hexahistidine tag (mLEPR.mmh) (mouse, UniProt P48356 22-839); experiment: SPR, captured mAb, 25C and 37C
Description: (§1) Equilibrium dissociation constants (KD values) for LEPR binding to purified anti-LEPR monoclonal antibodies were determined using a real-time surface plasmon resonance biosensor using a Biacore 4000 instrument. All binding studies were performed in 10 mM HEPES, 150 mM NaCl, 3 mM EDTA, and 0.05% v/v Surfactant Tween-20, pH 7.4 (HBS-ET) running buffer at 25° C. and 37° C. The Biacore sensor surface was first derivatized by amine coupling with a monoclonal mouse anti-human Fc antibody (GE, # BR-1008-39) to capture anti-LEPR monoclonal antibodies. […] Kinetic association (kₐ) and dissociation (kd) rate constants were determined by fitting the real-time binding sensorgrams to a 1:1 binding model with mass transport limitation using Scrubber 2.0c curve-fitting software. Binding dissociation equilibrium constants (KD) and dissociative half-lives (t½) were calculated from the kinetic rate constants as: […]

[3] = molecular target: rat LEPR extracellular domain expressed with a C-terminal myc-myc-hexahistidine tag (rLEPR.mmh) (rat, UniProt Q62959 22-839); experiment: SPR, captured mAb, 25C and 37C
Description: as §1

[4] = molecular target: T2, extracellular domain of human LEPR (amino acids 22-839 of P48357, Isoform B) with N-terminal myc-myc tag, … (human, UniProt P48357 22-839, GPI anchor at the C-terminus); experiment: FACS, 10 nM Ab, HEK293/hLEPR-GPI, no added Leptin
T2 construct: also called HEK293/Mycx2-hLepR(Ecto)-GPI anchored cells
T2 sequence: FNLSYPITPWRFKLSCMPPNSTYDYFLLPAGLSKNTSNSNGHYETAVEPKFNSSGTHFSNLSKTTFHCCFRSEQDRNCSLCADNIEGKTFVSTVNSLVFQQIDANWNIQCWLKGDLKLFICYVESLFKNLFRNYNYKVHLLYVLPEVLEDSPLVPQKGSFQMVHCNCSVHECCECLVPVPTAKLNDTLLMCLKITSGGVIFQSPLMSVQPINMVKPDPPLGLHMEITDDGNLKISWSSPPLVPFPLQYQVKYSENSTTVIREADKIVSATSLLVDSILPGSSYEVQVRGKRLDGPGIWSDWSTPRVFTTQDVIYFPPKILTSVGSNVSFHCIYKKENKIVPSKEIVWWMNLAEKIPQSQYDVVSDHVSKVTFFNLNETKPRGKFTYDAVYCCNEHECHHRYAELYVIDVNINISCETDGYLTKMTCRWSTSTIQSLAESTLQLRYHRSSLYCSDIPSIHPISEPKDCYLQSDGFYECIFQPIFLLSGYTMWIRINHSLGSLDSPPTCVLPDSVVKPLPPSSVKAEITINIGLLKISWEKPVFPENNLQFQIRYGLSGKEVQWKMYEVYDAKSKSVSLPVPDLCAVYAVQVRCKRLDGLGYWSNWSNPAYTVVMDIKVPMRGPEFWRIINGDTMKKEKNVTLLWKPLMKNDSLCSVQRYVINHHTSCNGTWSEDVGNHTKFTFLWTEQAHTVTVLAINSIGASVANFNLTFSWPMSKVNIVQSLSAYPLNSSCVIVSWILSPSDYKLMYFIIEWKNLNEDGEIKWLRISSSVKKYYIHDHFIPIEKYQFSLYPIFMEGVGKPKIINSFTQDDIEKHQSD
Description: For the FACS analysis, HEK293 parental cells and HEK293/hLEPR-GPI cells were dissociated and plated onto 96-well v-bottom plates at 5×10⁵ cells/well in PBS containing 2% FBS (FACS buffer). […] Cells were subsequently fixed using BD CytoFix™ (Becton Dickinson, #554655), filtered, and analyzed on a HyperCyt Flow Cytometer (Beckman Coulter). Unstained and secondary antibody alone controls were also tested for all cell lines. The results were analyzed using ForeCyt (IntelliCyt) and FlowJo version 10 software to determine the geometric means of fluorescence for viable cells. The geometric mean of fluorescence for each sample was then normalized to the geometric mean of unstained cells to obtain relative binding per condition referred to as “binding ratios”, and these binding ratios were recorded for each antibody tested.

rat LEPR extracellular domain expressed with a C-terminal myc-myc-hexahistidine tag (rLEPR.mmh), sequence (Q62959 other isoform, or with tags, fused parts or gaps): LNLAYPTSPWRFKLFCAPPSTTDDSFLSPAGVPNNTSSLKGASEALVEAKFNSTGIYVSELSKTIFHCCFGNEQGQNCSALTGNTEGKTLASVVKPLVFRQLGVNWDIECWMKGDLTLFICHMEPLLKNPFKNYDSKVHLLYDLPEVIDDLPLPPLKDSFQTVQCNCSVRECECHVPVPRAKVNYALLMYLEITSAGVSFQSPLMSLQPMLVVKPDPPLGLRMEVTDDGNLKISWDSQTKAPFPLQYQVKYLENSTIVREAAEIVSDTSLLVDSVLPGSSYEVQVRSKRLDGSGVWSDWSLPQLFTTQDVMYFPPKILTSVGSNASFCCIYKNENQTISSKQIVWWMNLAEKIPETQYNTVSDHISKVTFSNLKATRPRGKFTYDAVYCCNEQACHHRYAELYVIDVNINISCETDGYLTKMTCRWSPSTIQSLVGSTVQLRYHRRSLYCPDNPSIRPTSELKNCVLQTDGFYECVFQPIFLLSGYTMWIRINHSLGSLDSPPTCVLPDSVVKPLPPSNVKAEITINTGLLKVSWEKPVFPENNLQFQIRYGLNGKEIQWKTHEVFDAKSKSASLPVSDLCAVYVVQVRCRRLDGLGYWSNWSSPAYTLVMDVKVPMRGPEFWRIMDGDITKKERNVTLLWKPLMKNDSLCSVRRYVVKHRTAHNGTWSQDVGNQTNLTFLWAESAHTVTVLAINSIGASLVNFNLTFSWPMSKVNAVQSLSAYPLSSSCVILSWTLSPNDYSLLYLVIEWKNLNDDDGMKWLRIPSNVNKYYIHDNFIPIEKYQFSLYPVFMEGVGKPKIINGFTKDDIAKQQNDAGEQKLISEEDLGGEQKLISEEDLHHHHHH
mouse LEPR extracellular domain expressed with a C-terminal myc-myc-hexahistidine tag (mLEPR.mmh), sequence (P48356 other isoform, or with tags, fused parts or gaps): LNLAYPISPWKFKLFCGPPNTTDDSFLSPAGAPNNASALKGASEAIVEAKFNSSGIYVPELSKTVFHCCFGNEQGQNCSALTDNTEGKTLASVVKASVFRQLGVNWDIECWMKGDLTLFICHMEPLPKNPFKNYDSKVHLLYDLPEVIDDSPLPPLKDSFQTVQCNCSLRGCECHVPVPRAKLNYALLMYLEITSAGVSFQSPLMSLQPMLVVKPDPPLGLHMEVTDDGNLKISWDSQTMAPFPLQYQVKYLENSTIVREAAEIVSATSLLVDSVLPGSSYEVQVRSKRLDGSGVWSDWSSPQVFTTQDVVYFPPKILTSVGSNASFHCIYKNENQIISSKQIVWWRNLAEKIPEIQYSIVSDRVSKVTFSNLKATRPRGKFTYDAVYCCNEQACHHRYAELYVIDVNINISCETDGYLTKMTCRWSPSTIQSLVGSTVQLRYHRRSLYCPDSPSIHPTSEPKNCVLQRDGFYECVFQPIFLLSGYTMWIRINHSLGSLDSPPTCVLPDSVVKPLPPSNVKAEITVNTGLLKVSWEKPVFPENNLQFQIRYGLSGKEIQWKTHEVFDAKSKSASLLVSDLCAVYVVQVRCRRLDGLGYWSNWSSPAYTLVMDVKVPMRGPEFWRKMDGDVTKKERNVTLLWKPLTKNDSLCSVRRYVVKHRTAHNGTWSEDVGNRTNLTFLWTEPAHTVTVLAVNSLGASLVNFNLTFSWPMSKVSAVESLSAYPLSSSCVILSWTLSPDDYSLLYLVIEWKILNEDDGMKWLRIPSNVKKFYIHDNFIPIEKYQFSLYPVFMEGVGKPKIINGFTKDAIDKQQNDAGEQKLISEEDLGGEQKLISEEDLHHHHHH

B1: H4H18446P2 (antibody, human IgG4, V domains shown)
VH: EVQLVESGGGLVQPGGSLRLSCAASGFTFSNYGMTWVRQAPGKGLEWVSAITGGGGSTYYSNSVKGRFTISRDNSKNTVYLRMNSVRAEDTAVYYCAKYKWNFVDDWGQGTTVTVSS
VL: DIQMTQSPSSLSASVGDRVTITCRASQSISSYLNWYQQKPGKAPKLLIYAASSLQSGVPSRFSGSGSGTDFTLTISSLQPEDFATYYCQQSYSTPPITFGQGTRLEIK
notes: human IgG4 Fc
% activation; IMR-32/LEPR with 200 pM human Leptin [1]: 68%
% activation; IMR-32/LEPR without human Leptin [1]: 6%
EC50 (M); IMR-32/LEPR with 200 pM human Leptin [1]: 3.42e-11 M
EC50 (M); IMR-32/LEPR without human Leptin (STAT3-Luc reporter) [1]: 3.73e-10 M
binding result [2]: no binding (tested: 100 nM)
binding result [3]: no binding (tested: 100 nM)

B2: H4H17319P2 (antibody, V domains shown)
VH: QVQLVESGGSVVQPGRSLRLSCAASGFTFSTYAMYWVRQTPGKGLEWVAVLYSDGSNKYYIDSVKGRFTISRDTSTNTLYLQMSSLRADDSALYYCARLNWDYWYFDLWGRGTLVTVSS
VL: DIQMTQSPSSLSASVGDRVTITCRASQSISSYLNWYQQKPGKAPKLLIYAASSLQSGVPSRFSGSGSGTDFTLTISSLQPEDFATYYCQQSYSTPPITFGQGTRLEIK
notes: also called REGN4461
% activation; IMR-32/LEPR with 200 pM human Leptin [1]: 76%
% activation; IMR-32/LEPR without human Leptin [1]: 68%
EC50 (M); IMR-32/LEPR with 200 pM human Leptin [1]: 1.91e-10 M
EC50 (M); IMR-32/LEPR without human Leptin (STAT3-Luc reporter) [1]: 1.87e-10 M
binding result [2]: no binding (tested: 100 nM)
binding result [3]: no binding (tested: 100 nM)

B3: H4H16650P2 (antibody, V domains shown)
VH: QVQLVESGGGVVQPGKSLRLSCVASGFTFSSDAMYWVRQAPGKGLEWVAVIYYDGNYQYYEDSVKGRFTISRDNSQNTLDLQMNSLRVDDTAVYFCARLNWDYWYLDLWGRGTLVTVSS
VL: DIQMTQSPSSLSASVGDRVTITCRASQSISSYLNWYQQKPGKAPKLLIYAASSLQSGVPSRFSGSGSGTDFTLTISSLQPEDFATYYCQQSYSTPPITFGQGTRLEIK
% activation; IMR-32/LEPR with 200 pM human Leptin [1]: 88%
% activation; IMR-32/LEPR without human Leptin [1]: 68%
EC50 (M); IMR-32/LEPR with 200 pM human Leptin [1]: 5.19e-11 M
EC50 (M); IMR-32/LEPR without human Leptin (STAT3-Luc reporter) [1]: 6.19e-11 M
binding result [2]: no binding (tested: 100 nM)
binding result [3]: no binding (tested: 100 nM)
Binding Ratio (normalized to unstained) [4]: 2420 fold

B4: H4H18438P2 (antibody, V domains shown)
VH: QVQLVESGGGVVQPGRSLRLSCAASGFSFNTYGMHWVRQAPGKGLEWVTIIWYDGSIKYYADSVKGRFTISRDNSKNTLYLQMNSLRAEDTAVYYCARGGYSGYLYFDYWGQGTLVTVSS
VL: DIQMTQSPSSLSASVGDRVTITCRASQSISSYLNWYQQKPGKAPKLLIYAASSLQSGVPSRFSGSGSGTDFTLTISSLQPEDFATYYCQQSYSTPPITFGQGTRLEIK
% activation; IMR-32/LEPR with 200 pM human Leptin [1]: 76%
% activation; IMR-32/LEPR without human Leptin [1]: 5%
EC50 (M); IMR-32/LEPR with 200 pM human Leptin [1]: 2.02e-11 M
EC50 (M); IMR-32/LEPR without human Leptin (STAT3-Luc reporter) [1]: 1.49e-09 M
binding result [2]: no binding (tested: 100 nM)
binding result [3]: no binding (tested: 100 nM)
Binding Ratio (normalized to unstained) [4]: 1490 fold

B5: H4H16679P2 (antibody, V domains shown)
VH: QVQLVESGGGVVQPGRSLRLSCTASGFTFSSYAMYWVRQAPGKGLEWVSVIYYDGSYKYYADSVKGRFTISRDNSKNTLYLQMDSLRAEDTAVYYCASYNWNYWYFDFWGRGTLVTVSS
VL: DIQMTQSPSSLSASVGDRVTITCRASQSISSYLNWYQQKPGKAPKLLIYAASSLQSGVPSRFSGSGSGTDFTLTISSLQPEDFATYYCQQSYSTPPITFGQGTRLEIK
% activation; IMR-32/LEPR with 200 pM human Leptin [1]: 88%
% activation; IMR-32/LEPR without human Leptin [1]: 65%
EC50 (M); IMR-32/LEPR with 200 pM human Leptin [1]: 7.37e-11 M
EC50 (M); IMR-32/LEPR without human Leptin (STAT3-Luc reporter) [1]: 8.62e-11 M
binding result [2]: no binding (tested: 100 nM)
binding result [3]: no binding (tested: 100 nM)
Binding Ratio (normalized to unstained) [4]: 2060 fold

B6: H4H17321P2 (antibody, V domains shown)
VH: QVQLVESGGGVVQPGRSLRLSCEASGFSSSDNAMYWVRQAPGKGLEWVSVIYHDGSYKYYEDSVKGRFTIARDNSKNTLYLQMNSLRAEDTAVYYCARYNWNHWYFDVWGRGTLVTVSS
VL: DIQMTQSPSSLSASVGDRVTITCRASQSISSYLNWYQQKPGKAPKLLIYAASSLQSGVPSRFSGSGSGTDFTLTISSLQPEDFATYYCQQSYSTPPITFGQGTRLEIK
% activation; IMR-32/LEPR with 200 pM human Leptin [1]: 76%
% activation; IMR-32/LEPR without human Leptin [1]: 66%
EC50 (M); IMR-32/LEPR with 200 pM human Leptin [1]: 2.57e-10 M
EC50 (M); IMR-32/LEPR without human Leptin (STAT3-Luc reporter) [1]: 2.07e-10 M
binding result [2]: no binding (tested: 100 nM)
binding result [3]: no binding (tested: 100 nM)

B7: H4H18417P2 (antibody, V domains shown)
VH: QVQLVESGGGVVQPGRSLRLSCAASGFTFSTYGMHWVRQAPGKGLEWVSVISYDESNKYYADSVKGRFTISRDNSKNALYLQMNSLRNEDTAVYYCARDRPFGLVTGWFDPWGQGTLVTVSS
VL: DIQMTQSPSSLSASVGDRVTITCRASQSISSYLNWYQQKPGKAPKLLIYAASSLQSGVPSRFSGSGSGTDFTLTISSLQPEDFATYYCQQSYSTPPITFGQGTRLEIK
% activation; IMR-32/LEPR with 200 pM human Leptin [1]: 87%
% activation; IMR-32/LEPR without human Leptin [1]: 5%
EC50 (M); IMR-32/LEPR with 200 pM human Leptin [1]: 5.23e-10 M
EC50 (M); IMR-32/LEPR without human Leptin (STAT3-Luc reporter) [1]: 1.53e-10 M
binding result [2]: no binding (tested: 100 nM)
binding result [3]: no binding (tested: 100 nM)
Binding Ratio (normalized to unstained) [4]: 1840 fold

B8: H4H18445P2 (antibody, human IgG4, V domains shown)
VH: QVQLQESGPGLVKPSQTLSLTCTVSGGSISSGGDYWSWIRQLPGKGLEWIGYIYYSGSAYYNPSLKSRGTISIDTSKNQFSLKLTSVTAADTAVYFCVKLRFLEWFLGGWFGPWGQGTLVTVSS
VL: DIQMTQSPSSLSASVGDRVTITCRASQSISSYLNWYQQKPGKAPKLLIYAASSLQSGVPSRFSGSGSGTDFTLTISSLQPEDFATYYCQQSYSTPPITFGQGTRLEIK
notes: human IgG4 Fc
% activation; IMR-32/LEPR with 200 pM human Leptin [1]: 97%
% activation; IMR-32/LEPR without human Leptin [1]: 5%
EC50 (M); IMR-32/LEPR with 200 pM human Leptin [1]: 4.1e-10 M
EC50 (M); IMR-32/LEPR without human Leptin (STAT3-Luc reporter) [1]: 1.19e-08 M
binding result [2]: no binding (tested: 100 nM)
binding result [3]: no binding (tested: 100 nM)
Binding Ratio (normalized to unstained) [4]: 2020 fold

B9: H4H18449P2 (antibody, human IgG4, V domains shown)
VH: EVQLVESGGGLVQPGGSLRLSCVASGFTFNKYDMHWVRQTTGKGLEWVSGIDTDGDTYYPGSVKGRFTISRENAENSLYLQMNGLRVGDTAVYYCARWPWSGFYGAFDIWGQGTMVTVSS
VL: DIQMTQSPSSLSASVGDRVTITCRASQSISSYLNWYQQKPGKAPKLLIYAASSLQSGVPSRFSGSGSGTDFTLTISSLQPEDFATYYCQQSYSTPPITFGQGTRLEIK
notes: human IgG4 Fc
% activation; IMR-32/LEPR with 200 pM human Leptin [1]: 66%
% activation; IMR-32/LEPR without human Leptin [1]: 13%
EC50 (M); IMR-32/LEPR with 200 pM human Leptin [1]: 5.23e-11 M
EC50 (M); IMR-32/LEPR without human Leptin (STAT3-Luc reporter) [1]: 2.12e-10 M
binding result [2]: no binding (tested: 100 nM)
binding result [3]: no binding (tested: 100 nM)
Binding Ratio (normalized to unstained) [4]: 3370 fold
